PMC11218506, “Characterization of the dual regulation by a c-di-GMP riboswitch Bc1 with a long expression platform from Bacillus thuringiensis”

B1: mutant Bc1 dual terminator coding sequence (dsDNA)
DNA 1: CCAATGCTTTTACATTGGCTTTTTTTTATTCTCGAACATGCCACACCCATAAGCAGCCT
DNA 2: AGGCTGCTTATGGGTGTGGCATGTTCGAGAATAAAAAAAAGCCAATGTAAAAGCATTGG
B2: Bc1 dual terminator coding sequence (dsDNA)
DNA 1: CCAATGCTTTTACATTGGCTTTTTTTTATTCTCGAACATATTGAGAAACATTTTCAAAC
DNA 2: GTTTGAAAATGTTTCTCAATATGTTCGAGAATAAAAAAAAGCCAATGTAAAAGCATTGG
B3: ck+ (dhbA positive control) (dsDNA)
DNA 1: TTATTTTTATAATTGATAATGATAATCATTATCAATAGATTGCGTTTTTC
DNA 2: GAAAAACGCAATCTATTGATAATGATTATCATTATCAATTATAAAAATAA

Key:
[1] = molecular target: T1, Zur (Bacillus thuringiensis BMB171, UniProt A0A0G3E7H1 1-137); test: EMSA; 100 uM MnCl2 per Methods; 50 mM Tris-HCl pH 7.5, 10 mM MgCl2, 1 mM DTT, 100 mM NaCl, 100 uM MnCl2; 25 C, 30 min; 6% native PAGE in 0.5x TBE; DNA stated as 50 uM; conditions: protein: recombinant; tags: C-terminal 6xHis (pET28b); chain copies: 2; label: none (YeaRed gel stain); blunt
[2] = molecular target: T1, Zur; test: EMSA; 100 uM MnCl2 (Mn2+ addition did not affect the interaction); 50 mM Tris-HCl pH 7.5, 10 mM MgCl2, 1 mM DTT, 100 mM NaCl, 100 uM MnCl2; 25 C, 30 min; 6% native PAGE in 0.5x TBE; DNA stated as 50 uM; conditions: protein: recombinant; tags: C-terminal 6xHis (pET28b); chain copies: 2; label: none (YeaRed gel stain); blunt

| Binder | binding result [1] | binding result [2] |
| --- | --- | --- |
| B1 | no binding |  |
| B2 |  | binds |
| B3 | binds |  |
